In patent US20060166868A1, “Vegf peptides and their use” (priority 2002, published 2006):
No end group written: not given here.

Key:
HUVECs = settings: Soker et al, J. Biol. Chem. 272 (1997); cited from earlier work
Neuropilin-1 (NP-1) = molecular target: T1, Neuropilin-1 (NP-1) (Homo sapiens, UniProt O14786); assay: 125I-VEGF165 binding to PAE/NP1 cells
T1 construct: expressed in transfected cells; host or cells: porcine aortic endothelial cells (PAE/NP1)

KDR [1] = molecular target: T2, KDR (Homo sapiens, UniProt P35968); assay: 125I-VEGF165 binding to PAE/KDR cells; settings: FIG. 2; cells expressing only KDR
T2 construct: expressed in transfected cells; host or cells: porcine aortic endothelial cells (PAE/KDR)

Flt-1 = molecular target: T3, Flt-1 (Homo sapiens, UniProt P17948); assay: 125I-VEGF165 binding to PAE/Flt-1 cells; settings: FIG. 2; cells expressing only Flt-1
T3 construct: expressed in transfected cells; host or cells: porcine aortic endothelial cells (PAE/Flt-1)

[2] = system: human umbilical vein endothelial cells (HUVEC) which express NP-1, KDR and Flt-1; assay: radiolabelled VEGF binding to HUVEC; settings: FIG. 2
KDR [3] = assay: KDR Phosphorylation Assay; type: cell-based; settings: FIG. 3; peptide at 10, 30 and 100 mM for 15 minutes, then 25 ng/ml VEGF for 10 minutes; immunoblot
Description: Cells were pretreated with peptide at 10, 30 and 100 mM for 15 minutes followed by treatment with 25 ng/ml VEGF for 10 minutes, and cells were immediately extracted by lysis buffer (64 mM Tris-HCl, pH 6.8, 0.2 mM Na3VO4, 2% SDS, 10% glycerol, 0.1 mM AEBSF, […] leupeptin). KDR phosphorylation was determined by immunoblotting cell extracts with antibodies which recognise either KDR phosphorylated at Tyrosines 1054 and 1059 (purchased from Oncogene Research Products Inc.) or total KDR (purchased from Santa Cruz Inc.). Immunoreactive bands were visualised by chemiluminescence using horseradish peroxidase-conjugated anti-rabbit IgG and ECL reagent.

NP-1 = molecular target: T4, NP-1 (Homo sapiens, UniProt O14786); assay: radiolabelled VEGF binding to MDA-MB-231 cells; settings: FIG. 4; cells naturally express only NP-1 receptors for VEGF
T4 construct: the breast carcinoma cell line MDA-MB-231, that naturally expresses only NP-1 receptors for VEGF; endogenous in cells; host or cells: MDA-MB-231
T4 sequence (O14786 22-923): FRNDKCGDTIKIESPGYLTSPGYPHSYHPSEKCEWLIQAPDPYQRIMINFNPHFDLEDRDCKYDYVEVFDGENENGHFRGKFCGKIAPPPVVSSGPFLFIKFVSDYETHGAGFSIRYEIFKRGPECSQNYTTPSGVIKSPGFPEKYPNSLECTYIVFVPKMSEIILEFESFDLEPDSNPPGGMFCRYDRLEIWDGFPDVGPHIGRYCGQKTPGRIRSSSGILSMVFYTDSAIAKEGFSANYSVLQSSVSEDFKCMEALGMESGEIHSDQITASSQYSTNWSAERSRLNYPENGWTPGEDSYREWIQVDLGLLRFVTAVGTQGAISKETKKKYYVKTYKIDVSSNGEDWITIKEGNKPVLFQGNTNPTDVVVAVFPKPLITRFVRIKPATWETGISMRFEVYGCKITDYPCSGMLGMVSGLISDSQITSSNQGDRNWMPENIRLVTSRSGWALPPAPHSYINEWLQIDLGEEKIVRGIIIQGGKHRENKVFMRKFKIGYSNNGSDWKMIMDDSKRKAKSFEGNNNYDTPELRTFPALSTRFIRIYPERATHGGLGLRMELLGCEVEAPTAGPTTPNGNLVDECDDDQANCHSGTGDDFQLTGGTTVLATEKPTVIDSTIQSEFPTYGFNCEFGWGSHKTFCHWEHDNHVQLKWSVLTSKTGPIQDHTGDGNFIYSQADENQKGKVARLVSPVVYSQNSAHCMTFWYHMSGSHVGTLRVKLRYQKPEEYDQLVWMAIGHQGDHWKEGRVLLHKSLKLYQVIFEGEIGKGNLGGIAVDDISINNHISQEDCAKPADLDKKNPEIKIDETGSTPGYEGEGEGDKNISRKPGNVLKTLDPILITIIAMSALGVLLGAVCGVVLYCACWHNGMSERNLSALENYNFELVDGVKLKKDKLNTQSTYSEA

T1 sequence (O14786 22-923, species assumed): as the sequence (O14786 22-923) above
T3 sequence (P17948 27-1338, species assumed): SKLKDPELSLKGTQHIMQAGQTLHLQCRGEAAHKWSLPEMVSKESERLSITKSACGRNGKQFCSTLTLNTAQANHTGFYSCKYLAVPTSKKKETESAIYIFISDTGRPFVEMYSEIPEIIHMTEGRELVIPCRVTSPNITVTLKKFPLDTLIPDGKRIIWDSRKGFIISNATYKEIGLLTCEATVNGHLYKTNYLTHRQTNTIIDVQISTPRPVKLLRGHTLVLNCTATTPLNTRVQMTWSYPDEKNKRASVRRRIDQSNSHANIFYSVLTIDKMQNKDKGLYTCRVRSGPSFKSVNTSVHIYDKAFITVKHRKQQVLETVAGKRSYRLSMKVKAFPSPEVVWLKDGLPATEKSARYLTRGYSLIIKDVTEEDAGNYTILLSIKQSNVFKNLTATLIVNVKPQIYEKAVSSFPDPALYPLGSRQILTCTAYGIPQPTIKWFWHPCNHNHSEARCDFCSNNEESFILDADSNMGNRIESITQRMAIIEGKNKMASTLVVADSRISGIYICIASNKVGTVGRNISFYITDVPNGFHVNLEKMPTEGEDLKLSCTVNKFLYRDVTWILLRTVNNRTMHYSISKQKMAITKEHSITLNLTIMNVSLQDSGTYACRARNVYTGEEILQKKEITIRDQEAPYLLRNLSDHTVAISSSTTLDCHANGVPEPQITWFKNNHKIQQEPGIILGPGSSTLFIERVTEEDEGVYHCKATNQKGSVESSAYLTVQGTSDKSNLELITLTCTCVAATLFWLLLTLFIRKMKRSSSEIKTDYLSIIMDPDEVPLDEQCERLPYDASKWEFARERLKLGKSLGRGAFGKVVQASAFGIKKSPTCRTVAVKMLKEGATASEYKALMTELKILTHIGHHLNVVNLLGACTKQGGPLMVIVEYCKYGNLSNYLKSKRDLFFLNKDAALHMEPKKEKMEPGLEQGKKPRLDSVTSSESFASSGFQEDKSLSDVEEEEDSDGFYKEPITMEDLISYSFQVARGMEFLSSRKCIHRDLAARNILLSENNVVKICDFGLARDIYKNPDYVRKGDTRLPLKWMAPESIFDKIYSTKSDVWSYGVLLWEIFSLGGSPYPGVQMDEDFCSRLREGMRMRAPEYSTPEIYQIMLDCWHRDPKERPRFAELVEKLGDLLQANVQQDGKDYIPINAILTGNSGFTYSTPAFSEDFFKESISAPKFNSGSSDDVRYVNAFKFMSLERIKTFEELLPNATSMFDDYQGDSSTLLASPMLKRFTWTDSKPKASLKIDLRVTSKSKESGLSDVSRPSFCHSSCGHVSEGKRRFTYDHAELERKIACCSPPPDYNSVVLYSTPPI
T2 sequence (P35968 20-1356, species assumed): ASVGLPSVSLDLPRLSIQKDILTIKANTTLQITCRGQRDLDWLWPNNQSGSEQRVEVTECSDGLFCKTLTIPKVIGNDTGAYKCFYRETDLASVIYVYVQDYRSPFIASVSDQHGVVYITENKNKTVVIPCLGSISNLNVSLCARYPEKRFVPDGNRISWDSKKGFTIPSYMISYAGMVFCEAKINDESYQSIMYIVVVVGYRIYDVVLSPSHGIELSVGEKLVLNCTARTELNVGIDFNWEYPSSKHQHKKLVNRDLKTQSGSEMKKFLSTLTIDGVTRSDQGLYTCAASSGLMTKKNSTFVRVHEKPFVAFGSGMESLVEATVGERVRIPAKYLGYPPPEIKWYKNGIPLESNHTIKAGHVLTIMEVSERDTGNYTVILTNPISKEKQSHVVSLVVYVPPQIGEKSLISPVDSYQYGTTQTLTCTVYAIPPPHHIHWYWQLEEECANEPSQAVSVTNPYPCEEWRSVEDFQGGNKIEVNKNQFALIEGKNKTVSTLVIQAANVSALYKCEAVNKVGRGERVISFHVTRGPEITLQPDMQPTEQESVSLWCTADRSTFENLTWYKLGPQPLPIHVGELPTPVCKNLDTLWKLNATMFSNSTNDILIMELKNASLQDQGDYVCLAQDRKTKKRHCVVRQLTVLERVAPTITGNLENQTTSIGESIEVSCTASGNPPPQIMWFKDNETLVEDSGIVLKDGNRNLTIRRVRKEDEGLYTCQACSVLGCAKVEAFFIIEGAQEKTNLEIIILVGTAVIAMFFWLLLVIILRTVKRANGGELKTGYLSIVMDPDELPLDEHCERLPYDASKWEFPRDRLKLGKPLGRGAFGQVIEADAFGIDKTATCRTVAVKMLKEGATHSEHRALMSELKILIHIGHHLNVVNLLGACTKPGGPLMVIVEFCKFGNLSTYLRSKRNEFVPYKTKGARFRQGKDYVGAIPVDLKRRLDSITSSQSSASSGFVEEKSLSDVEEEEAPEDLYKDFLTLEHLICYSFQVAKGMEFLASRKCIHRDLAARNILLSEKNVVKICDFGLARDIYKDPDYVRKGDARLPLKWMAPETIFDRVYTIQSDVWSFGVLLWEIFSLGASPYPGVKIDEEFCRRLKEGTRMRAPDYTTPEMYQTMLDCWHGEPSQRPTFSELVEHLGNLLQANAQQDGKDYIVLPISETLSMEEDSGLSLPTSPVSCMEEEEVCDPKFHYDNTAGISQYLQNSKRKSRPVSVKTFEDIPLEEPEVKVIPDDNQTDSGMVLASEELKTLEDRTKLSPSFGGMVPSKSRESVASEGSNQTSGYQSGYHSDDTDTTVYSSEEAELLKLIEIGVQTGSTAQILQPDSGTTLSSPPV

| Substance | inhibition of VEGF binding to HUVECs (HUVECs) | effect on 125I-VEGF165 binding to PAE/NP1 cells (Neuropilin-1 (NP-1); FIG. 1, peptide 100 μM, porcine aortic endothelial cells expressing only NP-1) | inhibition of 125I-VEGF165 binding to PAE/NP-1 cells (Neuropilin-1 (NP-1); FIG. 2) | effect on 125I-VEGF165 binding to PAE/KDR cells (KDR [1]) | effect on 125I-VEGF165 binding to PAE/Flt-1 cells (Flt-1) | radiolabelled VEGF binding to HUVEC [2] | VEGF-induced KDR phosphorylation (KDR [3]) | binding of radiolabelled VEGF to breast carcinoma cell line MDA-MB-231 (NP-1) |
| --- | --- | --- | --- | --- | --- | --- | --- | --- |
| SEQ ID NO. 1: CSCKNTDSRCKARQLELNERTCRC, shortest active peptide of Soker et al; amino acids 22-44 of exon 7 and amino acid 1 of exon 8 (listed as Homo sapiens) | active |  |  |  |  |  |  |  |
| EG3287: bicyclic form of SEQ ID NO. 2, SCKNTDSRCKARQLELNERTCRCDKPRR, amino acids 138 to 165 within VEGF (not fully specified (N-terminus, C-terminus, bridges); also: bicyclic, two disulfides, pairing not given here; listed as Homo sapiens) |  | inhibition | specific, selective inhibition | no effect | no effect | inhibited | inhibited | inhibited |
